Source: paper PMC12498388, “Niraparib Demonstrates Therapeutic Potential in Multiple Sclerosis through Inhibition of IL-17A Receptor Interaction and Promotion of Remyelination” (ACS Chemical Neuroscience, 2025)

Tests used:
[1] = biological target: IL-17RA/IL-17RC heterodimeric receptor (UniProt Q96F46)
[2] = biological target: T1, IL-17A with IL-17RA/IL-17RC receptor (HEK-Blue IL-17 reporter cells) (Homo sapiens, UniProt Q16552); test: SEAP reporter assay in HEK-Blue IL-17 cells, QUANTI-Blue […] nm; format: cell-based; settings: IL-17A-stimulated cells, 37 °C overnight, 1 nM to 100 μM, four-parameter fit; indirect downstream reporter read-out (NF-kB/AP-1), binding site not shown experimentally
T1 construct: gene IL17A; IL-17A ligand supplied by the manufacturer, added to HEK 293 cells stably transfected with IL-17RA/IL-17RC heterodimeric receptor and Act1 adaptor; SEAP reporter (NF-kB/AP-1); with Interleukin-17 receptor A; Interleukin-17 receptor C

Chain of IL-17A (Q16552 24-155): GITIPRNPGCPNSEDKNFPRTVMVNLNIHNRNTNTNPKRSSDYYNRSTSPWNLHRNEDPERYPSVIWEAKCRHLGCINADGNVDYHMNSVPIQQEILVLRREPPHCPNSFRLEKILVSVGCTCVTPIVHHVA

SEAP release of HEK-Blue IL-17 reporter cells (QUANTI-Blue, 630 nm) with IL-17A; percent inhibition by the small molecule Niraparib, 1 nM to 100 uM (22% at 1 uM, 51% at 10 uM, 99.3% at 100 uM) [1] [%]	IC50 [2] [µM]	Compound
99.3	–	IL-17A (from UniProt Q16552 24-155) (ligand)
–	70	NC(=O)c1cccc2cn(-c3ccc([C@@H]4CCCNC4)cc3)nc12 [Niraparib]
